Measurements from PMC11466968.

What was measured:
[1] = biological target: HRI (UniProt Q9BQI3); experiment: co-immunoprecipitation with anti-FLAG antibody; details: reference: wild type BAG3-FLAG; sites S173,S377,S386
[2] = biological target: BAG3 (UniProt O95817); experiment: co-immunoprecipitation; details: sites T287

BAG3 (from UniProt O95817) BAG3 3A (S173A/S377A/S386A)
binding against the reference [1]: weaker

CaMKIIβ (from UniProt Q13554) CaMKIIβ T287A
binding against the reference ([2]; reference: wild type CaMKIIβ): weaker

CaMKIIδ (from UniProt Q13557) CaMKIIδ T287A
binding against the reference ([2]; reference: wild type CaMKIIδ): weaker
